Patent US20120094914A1 (KYUSHU UNIVERSITY NATIONAL UNIVERSITY, published 2012)

Biological target: T1, biotinylated HLA-G (monomer) refolded with human beta2 microglobulin and peptide … (human, biotinylated with BirA; site not stated)
T1 construct: also called wild-type HLA-G
Experiment: SPR (BIAcore 2000), equilibrium response against LIR2 concentration, fitted binding isotherm; biotinylated HLA-G immobilised via streptavidin, BSA control cell subtracted
Experimental: Surface plasmon resonance experiment was conducted for HLA-G and LILRB2 (LIR2), using BIAcore 2000° (BIAcore AB, St Albans, England). First, streptavidin was covalently immobilized on a laboratory sensor chip CM5 (BIAcore AB), and the biotinylated HLA-G and the negative control BSA were immobilized via the streptavidin. Then, LILRB2 (LIR2) dissolved in the running buffer HBS-EP (10 mM HEPES, pH 7.5, 150 mM sodium chloride, 3.4 mM EDTA, 0.005% Surfactant P20) was flown at 10 μL/min. The binding response at each concentration was calculated by subtracting the measured response in a control flow cell from the response in a sample flow cell. Binding constant (Kd) was obtained by Scatchard analysis, or by the nonlinear curve fitting of standard Langmuir binding isotherm, using ORIGIN 5 (Microcal Software).

Kd: 4.1 µM
B1: LILRB2 (LIR2) (receptor, UniProt Q8N423 24-220, looked up)
chain: GTIPKPTLWAEPDSVITQGSPVTLSCQGSLEAQEYRLYREKKSASWITRIRPELVKNGQFHIPSITWEHTGRYGCQYYSRARWSELSDPLVLVMTGAYPKPTLSAQPSPVVTSGGRVTLQCESQVAFGGFILCKEGEDEHPQCLNSQPHARGSSRAIFSVGPVSPNRRWSHRCYGYDLNSPYVWSSPSDLLELLVPG
notes: domain: ILT4D1D2; also called leukocyte Ig-like receptor B2; ILT4
